Source: paper PMC6133441

Target: human recombinant galectin-9, medium isoform (gal-9M) (human) (UniProt O00182)
Experiment: SPR; Biacore T200; gal-9M covalently bound to a CM5 chip (NHS/EDC, 10 μg/mL, pH 5, acetate buffer); Gal-Nab1 and Gal-Nab2 as analytes, 1.5 to 400 nM, 40 μL/min, 400 s, albumin 0.1 mg/mL and tween 0.05%; dissociation 500 s; the paper says the KD reflects avidity rather than affinity (apparent)

Sequence of human recombinant galectin-9, medium isoform (gal-9M) (human) (O00182 other isoform, or with tags, fused parts or gaps): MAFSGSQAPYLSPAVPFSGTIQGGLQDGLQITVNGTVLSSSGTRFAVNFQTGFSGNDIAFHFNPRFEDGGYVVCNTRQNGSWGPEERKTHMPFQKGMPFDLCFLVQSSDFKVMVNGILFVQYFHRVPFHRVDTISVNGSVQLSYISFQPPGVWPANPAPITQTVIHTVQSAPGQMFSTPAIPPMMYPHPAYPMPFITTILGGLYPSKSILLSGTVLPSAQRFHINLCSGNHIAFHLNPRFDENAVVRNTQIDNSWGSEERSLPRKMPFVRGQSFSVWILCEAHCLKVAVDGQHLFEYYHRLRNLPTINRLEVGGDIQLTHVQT

B1: Gal-Nab1 (antibody, V domains shown)
VH: KVQLQQSGAELVKPGASVKLSCKASGYTFTDYTIHWVKQRSGQGLEWIGWFYPGSHSIKYNEQFKDRATLTADKSSSTVYMELSRLTSEDSAVYFCTRHGGYDGFDYWGQGTTLTVSS
VL: DIVMSQSPSSLAVSVGEKITMSCKSSQSLFYSTNQKNYLAWYQQKPGQSPKLLIYWASTRESGVPDRFTGSGSGTDFTLTISSVKAEDLAVYYCQQYYYFPYTFGGGTKLEIK
Kd: 4.34 nM
koff: 0.000115 s⁻¹
kon: 26500 M⁻¹ s⁻¹
t1/2: 2.07 h
